pKd: −log10 of the molar value.
System: ScbR2
Assay: EMSA
Details: 'nearly 1 uM'; exact value in figure; not stated; modified EMSA as previously described (ref 23)

**Q.** With PkasO1 as the substance, how does the pKd read?
**A.** Its pKd is 6.00.

Source: publication PMC4625125
